The values below come from patent US20140248638A1 (BAXALTA, published 2014).

The assay concerns the target T1, human oxMIF (oxidized macrophage migration inhibitory factor) (human, UniProt P14174 2-115, oxidized isoform: made by mild oxidation (cystine, GSSG) or by 0.2% Proclin300 or protein crosslinkers (e.g. BMOE); the modified residues are not stated).
T1 construct: mature; a conformational/redox isoform; also called oxidized MIF; recombinant human oxMIF
Put plainly: sandwich ELISA, plate coated with RAM0, human EDTA plasma; calibrated with recombinant human MIF in 0.2% ProClin300.

T1 sequence (P14174 2-115): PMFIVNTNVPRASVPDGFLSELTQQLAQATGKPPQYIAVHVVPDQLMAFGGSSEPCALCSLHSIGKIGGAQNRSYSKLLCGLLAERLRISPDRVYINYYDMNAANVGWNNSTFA

B1: human anti-MIF monoclonal antibody RAM0 (antibody, human IgG1, kappa, V domains shown)
VH: EVQLLESGGGLVQPGGSLRLSCAASGFTFSWYAMDWVRQAPGKGLEWVSGIYPSGGRTKYADSVKGRFTISRDNSKNTLYLQMNSLRAEDTAVYYCARVNVIAVAGTGYYYYGMDVWGQGTTVTVSS
VL: DIQMTQSPGTLSLSPGERATLSCRASQGVSSSSLAWYQQKPGQAPRLLIYGTSSRATGIPDRFSGSASGTDFTLTISRLQPEDFAVYYCQQYGRSLTFGGGTKVEIKR
notes: Deposits DSM 25864 and DSM 25863
Turning to B1, the binding result is given as “binds”.
